Key:
[1] = system: rat primary auricular (ear elastic cartilage) chondrocyte; assay: MTT proliferation assay, primary chondrocytes in monolayer; assay type: cell-based; details: for light absorbance at 490 nm in MTT assay: Auricular chondrocyte, 48 h, mean ± SD
Description: (§1) 1. Preparation of primary chondrocyte. The 8-week-old male SD rats were sacrificed under sterile conditions. The articular cartilage, fibrocartilage and elastic cartilage tissue were isolated from the femur joints, meniscus and outer ear respectively using a scalpel. The isolated cartilage were cut into small pieces, washed twice with phosphate buffered saline (PBS), and digested with trypsin (0.25% (w/v) trypsin/0.02% (w/v) EDTA) at 37° C. for 30 min. The articular cartilage and elastic cartilage were further digested with 0.2% type II collagenase for additional 16 h, and the fibrocartilage were further digested with 0.15% type I collagenase for additional 16 h. After digestion, three chondrocytes were passed through 100 μm filter (Falcon, USA) into 15 ml centrifuge tubes, centrifuged at room temperature at 2000 rpm for 5 min. Cells were resuspended in DMEM containing 10% FBS (fetal bovine serum). Trypan blue staining of the freshly isolated cells was used to monitor the percentage of live cells under the microscope. When the number of live cells is more than 95%, it was used for subsequent experiments.
(§2) 2. MTT assay. Three types of primary chondrocytes were suspended at a density of 5×10^4 cells/ml in DMEM containing 10% FBS. Cells were seeded into a 96-well plate (100 μl per well) and cultured at 37° C. under 5% CO2 for 48 h. The cells were washed with serum-free DMEM medium once. Different concentrations of rhMK (0.5, 1.0, 3.0, 5.0, 9.0 μg/ml) in DMEM (containing 0.5% FBS) were added to each well and the cells were cultured for additional 48 h. After incubation, the medium was replaced with 100 μl serum-free DMEM medium and 20 μl MTT solution (0.5 mg/ml, in PBS), incubated at 37° C. under 5% CO2 for 4 h. After removing the liquid, 120 μl DMSO was added to dissolve the MTT crystals by shaking for 1 min on a micro-plate oscillator. Light absorbance at 490 nm was measured using a microplate reader (BIO-TEK, USA).

[2] = system: rat primary articular chondrocyte; assay: as above; assay type: cell-based; details: for light absorbance at 490 nm in MTT assay: Articular chondrocyte, 48 h, mean ± SD
Description: as §1, §2

[3] = system: rat primary fibrochondrocyte; assay: as above; assay type: cell-based; details: for light absorbance at 490 nm in MTT assay: Fibrochondrocyte, 48 h, mean ± SD
Description: as §1, §2

[4] = system: cartilage of normal New Zealand rabbit (articular, ear, tracheal, intervertebral disc); assay: rhMK effect on cartilage thickness of normal rabbits (subcutaneous injection, histology); assay type: in vivo; details: rhMK 92.5 μg/kg s.c. daily for two weeks
Description: (§3) Method. 8-weeks-old male C57BL/6J mice were injected subcutaneously with recombinant human MK (rhMK) or control saline. The injection volume was 0.5 ml, given daily for a week. The mice were grouped (3 animals per group): Saline (NS) group, rhMK groups injected with various dosages at 10, 33, 100, 300, 900 μg/kg. Rats were injected with saline or rhMK (175 μg/kg) daily for a week. Rabbits were injected with saline or rhMK (92.5 μg/kg) daily for two week. Histological observation and evaluation. The knee joint tissues of all mice and rats were fixed in 10% (v/v) formalin for 1 day, the tissues of rabbits were fixed for 2 days. The fixed tissues were subjected to demineralization in liquid (7% AlCl3.6H2O, 5% methanoic acid, 8.5% HCl) 4 days for mouse and rats issues, and 10 days for rabbit tissues. The demineralized tissues were subjected to dehydration by gradient ethanol, and treated for transparency by xylene, and embedded in wax. Tissue sections were prepared by the paraffin slicing machine (Laica), and stained with hemotoxylin/eosin or Safranine O/fast green staining. Slides were observed under microscope and analyzed. The thickness of cartilage tissues were measured by the vernier caliper on microscope. Three tissue sections from each sample were measured and analyzed statisticaly. The distance between surface of cartilage to subchondral tide line was measured at ½ position of femoral condyle to denote the thickness of knee-joint cartilage. The thickness of cartilage at central part of ears was measured to denote the thickness of ear elastic cartilage. The distance between out surface of annulus to nucleus of the intervertebral disc was measured to denote the thickness of thoracic intervertebral disc (T2-3). To verify the results of rhMk in mice, we performed the same experiments in vivo using commonly used laboratory animals, rat and rabbit. Rats were injected subcutaneously with rhMK at 175 μg/kg/day for one week, and rabbits was injected subcutaneously 92.5 ug/kg/day for two weeks. […] The injection dose of rhMK: mice was injected subcutaneously 300 μg/kg daily for a week; rats were injected 175 μg/kg daily for a week; and New Zealand rabbits was injected 92.5 μg/kg daily for two weeks. Three animals per group were analyzed.

rat primary chondrocytes = assay: Serum-free culture of chondrocytes; assay type: cell-based; details: for promotion of cell expansion over the control cultures without rhMK: serum-free medium after 24 h in DMEM with 10% FBS
Description: as §1
4. Serum-free culture. The primary chondrocytes were cultured with DMEM containing 10% FBS for 24 h and washed with serum-free culture medium once. The cells were further cultured with DMEM medium with ITS+1 (composed of insulin-transferrin-selenium, Sigma, USA). […] Cell medium was changed every two days. When cells grew to the confluence of 85% to 90%, they were collected by trypsin-digestion and subcultured as previously described.

[5] = system: cartilage of normal rat (articular, ear, tracheal, intervertebral disc); assay: rhMK effect on cartilage thickness of normal rats (subcutaneous injection, histology); assay type: in vivo; details: rhMK 175 μg/kg s.c. daily for a week
Description: as §3

B1: rhMK: recombinant human midkine mature protein (SEQ ID NO.1) expressed in E. coli and purified by ion-exchange chromatography (protein, listed as Homo sapiens)
chain: MKKKDKVKKGGPGSECAEWAWGPCTPSSKDCGVGFREGTCGAQTQRIRCRVPCNWKKEFGADCKYKFENWGACDGGTGTKVRQGTLKKARYNAQCQETIRVTKPCTPKTKAKAKAKKGKGKD
- light absorbance at 490 nm in MTT assay ([1]; rhMK 0.5 μg/ml): 0.52 ± 0.05
- light absorbance at 490 nm in MTT assay ([1]; rhMK 1.0 μg/ml): 0.54 ± 0.02
- light absorbance at 490 nm in MTT assay ([1]; rhMK 3.0 μg/ml): 0.56 ± 0.01
- light absorbance at 490 nm in MTT assay ([1]; rhMK 5.0 μg/ml): 0.56 ± 0.02
- light absorbance at 490 nm in MTT assay ([1]; rhMK 9.0 μg/ml): 0.56 ± 0.02
- lowest effective dose of rhMK (proliferation, MTT) ([1]; ear elastic cartilage cells, monolayer): 0.5 µg/mL
- light absorbance at 490 nm in MTT assay ([2]; rhMK 0.5 μg/ml): 0.33 ± 0.02
- light absorbance at 490 nm in MTT assay ([2]; rhMK 1.0 μg/ml): 0.40 ± 0.01
- light absorbance at 490 nm in MTT assay ([2]; rhMK 3.0 μg/ml): 0.38 ± 0.01
- light absorbance at 490 nm in MTT assay ([2]; rhMK 5.0 μg/ml): 0.30 ± 0.01
- light absorbance at 490 nm in MTT assay ([2]; rhMK 9.0 μg/ml): 0.39 ± 0.01
- lowest effective dose of rhMK (proliferation, MTT) ([2]; articular chondrocytes, monolayer): 1 µg/mL
- light absorbance at 490 nm in MTT assay ([3]; rhMK 0.5 μg/ml): 0.42 ± 0.02
- light absorbance at 490 nm in MTT assay ([3]; rhMK 1.0 μg/ml): 0.43 ± 0.02
- light absorbance at 490 nm in MTT assay ([3]; rhMK 3.0 μg/ml): 0.47 ± 0.00
- light absorbance at 490 nm in MTT assay ([3]; rhMK 5.0 μg/ml): 0.45 ± 0.00
- light absorbance at 490 nm in MTT assay ([3]; rhMK 9.0 μg/ml): 0.45 ± 0.00
- lowest effective dose of rhMK (proliferation, MTT) ([3]; fibrochondrocyte, monolayer): 3 µg/mL
- Cartilage thickness, Ear [4]: 605.4 ± 5.4 µm
- Cartilage thickness, Femoral condyle [4]: 612 ± 6.4 µm
- Cartilage thickness, Intervertbral disc (T2-3) [4]: 1520 ± 54 µm
- Cartilage thickness, Trachea [4]: 495 ± 6.5 µm
- promotion of cell expansion over the control cultures without rhMK (rat primary chondrocytes; passage 1): 34%
- promotion of cell expansion over the control cultures without rhMK (rat primary chondrocytes; passage 2): 51%
- promotion of cell expansion over the control cultures without rhMK (rat primary chondrocytes; passage 3): 18%
- cell attachment and proliferation in serum-free medium (rat primary chondrocytes; three types of chondrocytes cultured directly in serum-free medium, rhMK 3 μg/ml): did not make the cell attachment and proliferation
- Cartilage thickness, Ear [5]: 107 ± 3.4 µm
- Cartilage thickness, Femoral condyle [5]: 263 ± 54.4 µm
- Cartilage thickness, Intervertbral disc (T2-3) [5]: 659 ± 40.8 µm
- Cartilage thickness, Trachea [5]: 246 ± 9.1 µm
